Measured values reported in the Immune Epitope Database (IEDB).

Experiments:
HLA-A*30:02 = assay: IEDB peptide-MHC binding, purified MHC/competitive/radioactivity; filed as Kd, often an IC50 or EC50 that approximates it; ≥ and ≤ were set here for values at or beyond the usual limits of such assays
HLA-A*02:01 [1] = assay: IEDB peptide-MHC binding, purified MHC/direct/fluorescence; filed as Kd, often an IC50 or EC50 that approximates it; ≥ and ≤ were set here for values at or beyond the usual limits of such assays
HLA-A*69:01 = assay: as above
HLA-A*23:01 = assay: IEDB peptide-MHC binding, purified MHC/competitive/radioactivity; filed as Kd, often an IC50 or EC50 that approximates it; ≥ and ≤ were set here for values at or beyond the usual limits of such assays
HLA-A*24:02 = assay: as above
HLA-A*01:01 [2] = assay: as above
HLA-A*02:01 [3] = assay: IEDB peptide-MHC binding, purified MHC/competitive/fluorescence; filed as Kd, often an IC50 or EC50 that approximates it; ≥ and ≤ were set here for values at or beyond the usual limits of such assays
HLA-A*02:01 [4] = assay: IEDB peptide-MHC binding, purified MHC/competitive/fluorescence; ≥ and ≤ were set here for values at or beyond the usual limits of such assays
HLA-A*03:01 [5] = assay: IEDB peptide-MHC binding, purified MHC/competitive/radioactivity; filed as Kd, often an IC50 or EC50 that approximates it; ≥ and ≤ were set here for values at or beyond the usual limits of such assays; conditions: source organism: Dengue virus 3 Martinique/1243/1999
HLA-A*11:01 [6] = assay: as above; conditions: source organism: Dengue virus 3 Martinique/1243/1999
HLA-B*15:01 = assay: IEDB peptide-MHC binding, purified MHC/direct/fluorescence; filed as Kd, often an IC50 or EC50 that approximates it; ≥ and ≤ were set here for values at or beyond the usual limits of such assays; conditions: source organism: Homo sapiens
HLA-A*03:01 [7] = assay: as above
HLA-A*26:01 [8] = assay: IEDB peptide-MHC binding, purified MHC/competitive/radioactivity; filed as Kd, often an IC50 or EC50 that approximates it; ≥ and ≤ were set here for values at or beyond the usual limits of such assays
HLA-A*26:01 [9] = assay: IEDB peptide-MHC binding, purified MHC/direct/fluorescence; filed as Kd, often an IC50 or EC50 that approximates it; ≥ and ≤ were set here for values at or beyond the usual limits of such assays
HLA-B*40:01 = assay: as above
HLA-B*27:05 = assay: as above; conditions: source organism: Homo sapiens
HLA-A*11:01 [10] = assay: as above; conditions: source organism: Homo sapiens
HLA-A*02:02 = assay: IEDB peptide-MHC binding, purified MHC/competitive/radioactivity; filed as Kd, often an IC50 or EC50 that approximates it; ≥ and ≤ were set here for values at or beyond the usual limits of such assays
HLA-A*02:06 = assay: as above
HLA-A*02:03 = assay: as above
HLA-B*07:02 = assay: IEDB peptide-MHC binding, purified MHC/direct/fluorescence; filed as Kd, often an IC50 or EC50 that approximates it; ≥ and ≤ were set here for values at or beyond the usual limits of such assays
HLA-A*01:01 [11] = assay: as above; conditions: source organism: West Nile virus
HLA-B*58:01 = assay: as above
[12] = source organism: Dengue virus 4 Philippines/H241/1956
[13] = source organism: Dengue virus 1 Brazil/97-11/1997
[14] = source organism: Marburg virus - Musoke, Kenya, 1980
[15] = source organism: Dengue virus 3 Martinique/1243/1999
[16] = source organism: Dengue virus 2 Jamaica/1409/1983
[17] = source organism: Vaccinia virus WR
[18] = source organism: Zaire ebolavirus
[19] = source organism: Mycobacterium tuberculosis
[20] = source organism: Burkholderia mallei
[21] = source organism: Mammarenavirus juninense
[22] = source organism: Dengue virus 3 Singapore/8120/1995

Sequence: IGKMLESTY
- Kd (HLA-A*30:02; [12]): 0.0185 µM

Sequence: KNEHKSTWHY
- Kd (HLA-A*30:02; [13]): 0.45 µM

Sequence: FLYDRIAST
- Kd (HLA-A*02:01 [1]; [14]): 0.005 µM
- Kd (HLA-A*69:01; [14]): 1.84 µM

Sequence: YWISNGTGNI
- Kd (HLA-A*23:01; [15]): 0.165 µM

Sequence: HWVEITALI
- Kd (HLA-A*23:01; [12]): 0.1 µM
- Kd (HLA-A*24:02; [12]): 0.317 µM

Sequence: FTNMEAQLI
- Kd (HLA-A*01:01 [2]; [16]): 2.16 µM

Sequence: LLVNEFYI
- Kd (HLA-A*02:01 [3]; [17]): 0.0587 µM

Sequence: VKRLEELLP
- IC50 (HLA-A*02:01 [4]; [18]): ≥ 375 µM

Sequence: CTNTFVLKK
- Kd (HLA-A*03:01 [5]): 0.00971 µM
- Kd (HLA-A*01:01 [2]; [15]): 5.09 µM
- Kd (HLA-A*11:01 [6]): 0.0778 µM

Sequence: EADPTGHSY
- Kd (HLA-B*15:01): 13.5 µM

Sequence: LPYTFMLRK
- Kd (HLA-A*03:01 [7]; source organism: Escherichia coli): ≥ 20 µM

Sequence: RGDLPVWLAY
- Kd (HLA-A*30:02; [16]): 0.00685 µM

Sequence: TVIEELEKL
- Kd (HLA-A*26:01 [8]; [12]): 0.496 µM

Sequence: SIILEFFLM
- Kd (HLA-A*26:01 [8]; [13]): 4.19 µM

Sequence: ETAEAMHAS
- Kd (HLA-A*26:01 [9]; [19]): 0.071 µM

Sequence: ITNTIAGVA
- IC50 (HLA-A*02:01 [4]; [18]): 19.9 µM

Sequence: YLVVVGAVGV
- Kd (HLA-A*02:01 [3]; source organism: unidentified): 0.01 µM

Sequence: VLRGRHDAA
- Kd (HLA-A*02:01 [1]; [20]): 9.25 µM
- Kd (HLA-A*69:01; [20]): ≥ 20 µM

Sequence: ALFGIKLPAL
- Kd (HLA-A*02:01 [3]; source organism: Vaccinia virus Copenhagen): 0.0003 µM

Sequence: SLTSINVQA
- IC50 (HLA-A*02:01 [4]; source organism: West Nile virus NY-99): 0.503 µM

Sequence: TWAQNIPTAI
- Kd (HLA-A*24:02; [15]): 0.681 µM

Sequence: VQHPELTGL
- Kd (HLA-B*40:01; source organism: Influenza A virus): 0.137 µM

Sequence: TPRKKNYHF
- Kd (HLA-A*02:01 [3]; source organism: Vibrio parahaemolyticus K5030): ≥ 20 µM

Sequence: ERLQICQRK
- Kd (HLA-A*03:01 [7]; source organism: Homo sapiens): 10.4 µM
- Kd (HLA-B*27:05): 1.69 µM
- Kd (HLA-A*11:01 [10]): 9.4 µM

Sequence: DVDKLVCRD
- IC50 (HLA-A*02:01 [4]; [18]): 51.9 µM

Sequence: AMPGVLSYV
- Kd (HLA-A*02:01 [1]; [21]): 0.0036 µM
- Kd (HLA-A*02:02; [21]): 0.00422 µM
- Kd (HLA-A*02:06; [21]): 0.0218 µM
- Kd (HLA-A*02:03; [21]): 0.00729 µM

Sequence: HTQTAGPWHL
- Kd (HLA-A*01:01 [2]; [16]): ≥ 70.4 µM

Sequence: RPVSPGKDI
- Kd (HLA-B*07:02; source organism: Homo sapiens): 0.0453 µM

Sequence: ALVREGLRNV
- IC50 (HLA-A*02:01 [4]; [19]): 0.13 µM

Sequence: AEDMGNGCF
- Kd (HLA-B*40:01; source organism: Influenza A virus (A/Moscow/343/2003(H3N2))): 0.166 µM

Sequence: IWGRKSWPL
- Kd (HLA-A*24:02; [13]): 0.0933 µM

Sequence: DDQEKKILM
- IC50 (HLA-A*02:01 [4]; [18]): ≥ 1720 µM

Sequence: TANIFRGSY
- Kd (HLA-A*30:02; [12]): 0.00679 µM

Sequence: VVQHENLKY
- Kd (HLA-A*01:01 [2]; [22]): 2.4 µM
- Kd (HLA-A*30:02; [22]): 0.266 µM

Sequence: QYIYMGEPL
- Kd (HLA-A*23:01; [16]): 0.205 µM

Sequence: NITTAVKTV
- IC50 (HLA-A*02:01 [4]; source organism: Sudan ebolavirus): 22.8 µM

Sequence: RMIGGIGRFYI
- Kd (HLA-A*02:01 [3]; source organism: Influenza A virus (A/swine/Italy/2/1979(H1N1))): 0.0003 µM

Sequence: LIPLWMAGL
- Kd (HLA-A*26:01 [9]; source organism: Vibrio vulnificus CMCP6): 8.98 µM

Sequence: DLKPQNILL
- Kd (HLA-A*02:01 [3]; source organism: Homo sapiens): 2 µM

Sequence: NSTSTWVTY
- Kd (HLA-A*01:01 [2]; [16]): 7.23 µM
- Kd (HLA-A*30:02; [16]): 1.73 µM

Sequence: EPILEYVVY
- Kd (HLA-A*26:01 [9]; source organism: Francisella tularensis subsp. tularensis FSC033): 0.827 µM

Sequence: VMAPDKPSL
- Kd (HLA-A*69:01; source organism: Yellow fever virus): ≥ 20 µM

Sequence: LQLNETIYT
- IC50 (HLA-A*02:01 [4]; [18]): 2.7 µM

Sequence: MTRGILGSY
- Kd (HLA-A*01:01 [11]): 7 µM

Sequence: LLHDIGKPV
- Kd (HLA-B*07:02; [19]): 11.5 µM
- Kd (HLA-A*69:01; [19]): ≥ 20 µM

Sequence: LLPFGQLSI
- Kd (HLA-A*02:01 [3]; source organism: Escherichia coli O139:H28 str. E24377A): 0.147 µM

Sequence: EIDVSEVKTL
- Kd (HLA-A*02:02; [17]): 4.95 µM
- Kd (HLA-A*02:06; [17]): ≥ 56 µM
- Kd (HLA-A*02:03; [17]): 2.24 µM

Sequence: LAELLEMKYA
- Kd (HLA-A*02:02; [17]): 0.999 µM
- Kd (HLA-A*02:06; [17]): 2.45 µM
- Kd (HLA-A*02:03; [17]): 1.04 µM

Sequence: IFISANNQW
- Kd (HLA-B*58:01; source organism: Vibrio vulnificus): 0.0228 µM

Sequence: MMVILPDKI
- Kd (HLA-A*02:02; [17]): 0.0692 µM
- Kd (HLA-A*02:06; [17]): 0.909 µM
- Kd (HLA-A*02:03; [17]): 0.0163 µM

Sequence: KLYIALCKVT
- Kd (HLA-A*02:02; [17]): 7.11 µM
- Kd (HLA-A*02:06; [17]): 6.36 µM
- Kd (HLA-A*02:03; [17]): 0.625 µM

Sequence: LIQYRQQLEL
- Kd (HLA-A*02:02; [17]): ≥ 32.8 µM
- Kd (HLA-A*02:06; [17]): ≥ 52.6 µM
- Kd (HLA-A*02:03; [17]): 19.5 µM

Sequence: IAGFIENGW
- Kd (HLA-B*58:01; source organism: Influenza A virus (A/Sichuan/2/1987(H3N2))): 0.144 µM
